According to patent US20160039903A1 (Stanford University, published 2016):
Read-outs that look alike come from different tables or passages of the source.

T1: human PD-L2 displayed on yeast (residues 20-123) (human; S. cerevisiae, UniProt Q9BQ51 20-123)
T1 construct: also called yeast displaying hPD-L2; ectodomain of hPD-L2; not shown: Aga2 of S. cerevisiae (pYAL vector); linker and tag between not g
T1 sequence: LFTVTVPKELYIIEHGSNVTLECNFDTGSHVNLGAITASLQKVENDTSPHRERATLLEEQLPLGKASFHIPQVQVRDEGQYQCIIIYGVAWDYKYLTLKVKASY


Legend:
human PD-L1 on cells [1] = target: T2, human PD-L1 on cells (human, UniProt Q9NZQ7 19-290); assay: flow cytometry of a dissociated CT26 hPD-L1 positive tumor 4 h after intraperitoneal injection of both labeled agents; same quadrant of the PD-L1 negative tumor: 3.97 [panel CT26, hPD-L1 positive]
T2 construct: also called hPD-L1; PD-L1 on IFNγ-induced SK-MEL-28 (SKMEL28) cells
T2 sequence (Q9NZQ7 19-290 limits assumed): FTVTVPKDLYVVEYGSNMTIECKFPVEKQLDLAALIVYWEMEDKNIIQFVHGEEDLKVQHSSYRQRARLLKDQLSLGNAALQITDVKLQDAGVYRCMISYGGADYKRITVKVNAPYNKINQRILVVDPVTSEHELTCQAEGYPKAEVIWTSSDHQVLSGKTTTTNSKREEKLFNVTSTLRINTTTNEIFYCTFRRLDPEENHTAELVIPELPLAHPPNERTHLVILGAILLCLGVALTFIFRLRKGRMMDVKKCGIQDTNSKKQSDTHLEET

[2] = target: T3, recombinant biotinylated human PD-L1 ectodomain (IgV and IgC domains, residues 19-239) (human, UniProt Q9NZQ7 19-239, enzymatically biotinylated (BirA) on the biotin acceptor peptide); assay: surface plasmon resonance, biotinylated hPD-L1 immobilized on a streptavidin chip; column head 'PD-L1 affinity'
T3 construct: also called biotinylated hPD-L1; biotinylated PD-L1; not shown: carboxy-terminal 8x histidine tag
T3 sequence (Q9NZQ7 other isoform, or with tags, fused parts or gaps): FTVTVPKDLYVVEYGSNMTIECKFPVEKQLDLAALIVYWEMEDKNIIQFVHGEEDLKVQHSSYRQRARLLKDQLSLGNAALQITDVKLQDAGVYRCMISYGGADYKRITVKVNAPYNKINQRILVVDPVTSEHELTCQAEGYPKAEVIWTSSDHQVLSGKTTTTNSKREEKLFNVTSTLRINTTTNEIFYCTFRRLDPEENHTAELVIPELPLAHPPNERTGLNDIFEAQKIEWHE

[3] = target: T3, recombinant biotinylated human PD-L1 …; assay: as above; remark: listed apart in the source
[4] = target: T4, human PD-L1 displayed on yeast (residues 19-132) (human; S. cerevisiae, UniProt Q9NZQ7 19-132); assay: competition flow cytometry on yeast displaying human PD-L1; competitor probe: labeled native PD-1 streptavidin tetramer
T4 construct: also called yeast displaying human PD-L1; not shown: Aga2 of S. cerevisiae (pYAL vector); linker and tag between not g
T4 sequence (Q9NZQ7 19-132 limits assumed): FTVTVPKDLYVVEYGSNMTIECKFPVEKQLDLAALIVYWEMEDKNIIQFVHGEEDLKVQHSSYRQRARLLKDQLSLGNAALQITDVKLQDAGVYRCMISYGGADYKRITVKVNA

[5] = target: T1, human PD-L2 displayed on yeast …; assay: competition flow cytometry on yeast displaying the ectodomain of hPD-L2, 100 nM PD-1 tetramer as competitor; wild-type PD-1 on yeast displaying hPD-L2
[6] = target: T3, recombinant biotinylated human PD-L1 …; assay: SPR, biotinylated PD-L1 on streptavidin chip
human PD-L1 on cells [7] = target: T2, human PD-L1 on cells; assay: competition flow cytometry on IFNγ-induced SK-MEL-28 cells, 100 nM labeled PD-1 tetramer as competitor
[8] = target: T5, mouse PD-L1 on B16-F10 cells (mouse, UniProt Q9EP73 19-290); assay: competition flow cytometry on murine B16-F10 cells, 100 nM PD-1 tetramer as competitor; wild-type hPD-1 on murine B16-F10 cells
T5 construct: whole, on cells; also called mPD-L1; PD-L1 on murine B16-F10 cells
T5 sequence (Q9EP73 19-290): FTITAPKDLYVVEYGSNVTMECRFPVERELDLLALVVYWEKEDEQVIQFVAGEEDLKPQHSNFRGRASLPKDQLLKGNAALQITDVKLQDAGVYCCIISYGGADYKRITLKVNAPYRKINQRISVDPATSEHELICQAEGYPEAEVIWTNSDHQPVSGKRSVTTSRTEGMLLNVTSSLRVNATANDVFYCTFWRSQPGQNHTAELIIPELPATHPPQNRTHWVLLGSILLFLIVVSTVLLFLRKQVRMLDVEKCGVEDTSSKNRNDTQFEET

[9] = target: T1, human PD-L2 displayed on yeast …; assay: competition flow cytometry on yeast displaying human PD-L2; competitor probe: labeled native PD-1 streptavidin tetramer

Kd [2] [nM]	Kd [3] [nM]	Molecule	other results
		AlexaFluor 488-conjugated anti-hPD-L1 antibody (clone 29E.2A3, BioLegend)	percent of cells in the quadrant HAC 594 negative, Anti-hPD-L1 488 positive (human PD-L1 on cells [1]): 2.22%
0.218	0.218	G2 4-12 (designed binder, also called Generation 2, clone 4-12) PD-1 variant IgV domain: DSPDRPWNPPTFSPALLVVTEGDNATFTCSFSNTSESFHVVWHYESPSGQTDTLAAFPEDRSQPGQDARFRVTQLPNGRDFHLSVVRARRNDSGTYVCGIISLAPKIQIKESLRAELRVTER	
0.196	0.196	G2 4-5 (designed binder, also called Generation 2, clone 4-5) PD-1 variant IgV domain: DSPDRPWNPPTFSPALLVVTEGDNATFTCSFSNTSESFHVVWHRESPSSQTDTLAAFPEDRSQPGPDARFRVTQLPNGRDFQLSVVRARRNDSGTYVCGVISLAPKIQIKESLRAELRVTER	
7.78	7.78	G1 4-1 (designed binder, also called Generation 1, clone 4-1) PD-1 variant IgV domain: DSPDRPWNPPTFSPALLVVTEGDNATFTCSFSNTSESFRLVWHRESPGYETDTLASFPEDRSTPLPDCRFRVTQLPNGRDFHMSVVRARRNDSGTYVCGAIAFHPVIQIKESLRAELRVTER	IC50 (read off the curve) [4]: ~100 nM
10.7	10.7	G1 4-4 (designed binder, also called Generation 1, clone 4-4) PD-1 variant IgV domain: DSPDRPWNPPTFSPALLVVTEGDNATFTCSFSNTSESFRLVWHRESPNNHAYTLALFPEDRSLPFPDCRFRVTQLPNGRDFHMSVVRARRNDSGTYICGAITFDPRIQIKESLRAELRVTER	IC50 (read off the curve) [4]: ~100 nM
3880	3880	wild-type human PD-1 IgV domain (residues 26-147), native PD-1 mimic polypeptide (receptor, Soluble monomer secreted from High Five insect cells; also called wild-type hPD-1; WT PD-1 monomer) DSPDRPWNPPTFSPALLVVTEGDNATFTCSFSNTSESFVLNWYRMSPSNQTDKLAAFPEDRSQPGQDCRFRVTQLPNGRDFHMSVVRARRNDSGTYLCGAISLAPKAQIKESLRAELRVTERHHHHHHHH	IC50 [5]: 2500 nM; dissociation half-life [6]: < 1 s; IC50 (human PD-L1 on cells [7]): 8200 nM; IC50 [8]: 2600 nM
0.267	0.267	G2 4-1 (Generation 2, clone 4-1) (designed binder) DSPDRPWNPPTFSPALLVVTEGDNATFTCSFSNTSESFHVVWHRESPSGQTDTLAAFPEDRSQPGPDARFRVTQLPNGRDFHLSVVRARRNDSGTYVCGAISLAPKIQIKESLRAELRVTERHHHHHHHH	binding result [9]: no binding (tested: 1e-6 M (Log[Inhibitor (M)] = -6))
0.222	0.222	G2 4-2 (designed binder) DSPDRPWNPPTFSPALLVVTEGDNATFTCSFSNTSESFHIIWHRESPSGQTDTLAAFPEDRSQPGQDARFRVTQLPNGRDFHLSVVRARRNDSGTYVCGVISLAPKIQIKESLRAELRVTERHHHHHHHH	binding result [9]: no binding (tested: 1e-6 M (Log[Inhibitor (M)] = -6))
